Results taken from patent US20210363269A1 (ALX ONCOLOGY, published 2021).
Blank lines part the entries; values can stand above or below the binder they belong to.

Legend:
[1] = biological target: T1, human SIRP-α v2 D1 domain (human); assay: SPR, antibody immobilised on GLC chip; Table M cell, 119 Mut/mut on human v2
T1 construct: also called human v2; human α v2
Summary of the method: (§1)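 On a ProteOn XPR36 biosensor, Protein A-purified antibodies were amine-coupled to a GLC chip at about ~1000 RU after dilution to 80 nM in 10 mM sodium acetate pH 4.5. SIRP analytes at 100, 33, 11, 3.7, 1.2 and 0 nM were then injected one-shot in PBS pH 7.4 containing 0.01% Tween-20 at 25° C, with 90 s of association at 100 μL/min and 1200 s of dissociation. The dissociation constant (KD) was calculated as kd/ka from a global Langmuir fit of double-referenced data.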

[2] = biological target: T2, cynomolgus SIRP-α D1 domain (SEQ ID NO:11) (cynomolgus, UniProt Q5TFQ8 30-148 (human entry), limits assumed); assay: SPR, antibody immobilised on GLC chip
T2 construct: also called cyno1
T2 chain: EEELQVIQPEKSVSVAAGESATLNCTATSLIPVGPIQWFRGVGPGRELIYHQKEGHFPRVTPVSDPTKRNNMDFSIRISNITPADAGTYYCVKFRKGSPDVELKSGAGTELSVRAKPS

[3] = biological target: T3, human SIRP-α v1 D1 domain (human, UniProt P78324 31-149); assay: SPR, antibody immobilised on GLC chip
T3 construct: also called human v1; human α v1

[4] = biological target: T4, human SIRP-α v1 D1 domain (human, UniProt P78324 31-149); assay: SPR, antibody immobilised on GLC chip; sentence of the text that cites Table M
T4 construct: biotinylated and captured on avidin in the ELISA; also called human v1
Summary of the method: as §1

[5] = biological target: T5, human SIRP-α v2 D1 domain (human); assay: as above
T5 construct: biotinylated and captured on avidin in the ELISA; also called human v2
Summary of the method: as §1

[6] = biological target: T6, human SIRPγ isoform 1 (human, UniProt Q9P1W8 29-147); assay: ELISA, target coated on the plate, scFv-Fc titrated from 0.008 to about 1 µg/ml, OD 405
T6 construct: also called human SIRP-γ v1; sirpg
Experimental: (§2) ELISA assays were carried out to screen binding of antibody clones to SIRP analytes and SIRP-α:CD47 complex. […] Plates were blocked with PBS™ (Phosphate Buffered Saline pH 7.4, 0.05% Tween®20 polysorbate, 3% milk), 50 ul of supernatant containing the secreted scFv-Fc are added for 1 hr at room temp. Plates were washed with PBST. 50 ul of anti-hFc-HRP (1:5000 Rockland 609-4303) added for 1 hr at room temp. Plates were washed with PBST. TMB was developed for 5 min and stopped with 1N HCl. ELISA results were read using BioTek Synergy H1 Hybrid Reader. The corresponding proteins used for the assay and described here are: human SIRPα V1 (SEQ ID NO: 5); human SIRPα V2 (SEQ ID NO:6); cynomolgus SIRPα (SEQ ID NO:11); mouse NOD SIRPα (SEQ ID NO: 8); human SIRPγ (SEQ ID NO: 15); CD47 (SEQ ID NO: 16); high affinity SIRPα V1 (SEQ ID NO: 42); high affinity SIRPα V2 (SEQ ID NO:17).

[7] = biological target: T5, human SIRP-α v2 D1 domain; assay: as above
Experimental: as §2

[8] = biological target: T7, NOD mouse SIRP-α D1 domain (mouse (NOD strain)); assay: as above
T7 construct: also called mouse NOD SIRPα
T7 chain: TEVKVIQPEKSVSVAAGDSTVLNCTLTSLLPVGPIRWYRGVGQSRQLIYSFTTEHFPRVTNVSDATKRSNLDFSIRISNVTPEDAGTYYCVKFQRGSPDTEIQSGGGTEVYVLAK
Experimental: as §2

[9] = biological target: T1, human SIRP-α v2 D1 domain; assay: SPR, antibody immobilised on GLC chip
Experimental: (§3) All experiments were performed at 25° C. using a SPR-based ProteOn XPR36 biosensor (BioRad, Inc, Hercules, Calif.) equipped with GLC or NLC sensor chips. […] Purification was carried out by standard Protein A affinity column chromatography and eluted antibodies were stored in PBS buffer.
(§4) For the method using GLC chip, the analytes were injected and flowed over anti-SIRPα antibodies immobilized (˜1000 RUs) on GLC chips using Proteon™ Amine Coupling Kit. For the immobilization step, GLC chip was activated with EDAC/Sulpho-NHS 1:1 (Biorad) diluted 1/100 for 300 s at 25 μL/min. Anti-SIRPα antibodies were diluted to 80 nM concentration in 10 mM sodium acetate buffer pH 4.5 and immobilized to the chip at 30 μL/min for 50 s. Chip was inactivated with ethanolamine for 300 s at 25 μL/min. The analytes (e.g., SIRP-α from different species, SIRP-β, SIRP-γ) were injected in a “one-shot” kinetic mode at nominal concentrations of 100, 33, 11, 3.7, 1.2 and 0 nM. Association times were monitored for 90 s at 100 μL/min, and dissociation times were monitored for 1200 s. The surfaces were regenerated with a 2:1 v/v blend of Pierce IgG elution buffer/4M NaCl. […]

[10] = biological target: T2, cynomolgus SIRP-α D1 domain (SEQ ID …); assay: SPR, antibody immobilised on GLC chip
Experimental: as §3, §4

[11] = biological target: T8, human SIRPγ isoform 1 (human, UniProt Q9P1W8 29-147); assay: SPR, antibody immobilised on GLC chip
T8 construct: also called sirpg; sirp-g
Experimental: as §3, §4

[12] = biological target: T9, C57BL/6 mouse SIRP-α D1 domain (mouse (C57BL/6 strain), UniProt P97797 32-148); assay: SPR, antibody immobilised on GLC chip
T9 sequence: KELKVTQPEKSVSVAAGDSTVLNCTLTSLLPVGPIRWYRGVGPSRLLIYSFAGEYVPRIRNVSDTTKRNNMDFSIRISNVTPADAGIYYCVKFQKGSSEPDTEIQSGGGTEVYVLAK
Experimental: as §3, §4

[13] = biological target: T10, BALB/c mouse SIRP-α D1 domain (mouse (BALB/c strain)); assay: SPR, antibody immobilised on GLC chip
T10 chain: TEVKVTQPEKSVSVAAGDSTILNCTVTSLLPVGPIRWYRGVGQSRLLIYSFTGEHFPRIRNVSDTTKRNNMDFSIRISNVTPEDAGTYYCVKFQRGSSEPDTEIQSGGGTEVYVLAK
Experimental: as §3, §4

[14] = biological target: T3, human SIRP-α v1 D1 domain; assay: SPR, antibody immobilised on GLC chip; remark: listed apart in the source
Experimental: as §3, §4

[15] = biological target: T11, NOD mouse SIRP-α D1 domain (mouse (NOD strain)); assay: SPR, antibody immobilised on GLC chip
T11 chain: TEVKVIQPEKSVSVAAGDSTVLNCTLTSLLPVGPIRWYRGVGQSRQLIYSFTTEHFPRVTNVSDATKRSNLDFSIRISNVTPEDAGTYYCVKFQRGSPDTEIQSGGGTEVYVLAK
Experimental: as §3, §4

[16] = biological target: T1, human SIRP-α v2 D1 domain; assay: SPR, Langmuir fit
[17] = biological target: T2, cynomolgus SIRP-α D1 domain (SEQ ID …); assay: SPR, Langmuir fit
[18] = biological target: T8, human SIRPγ isoform 1; assay: SPR, Langmuir fit
[19] = biological target: T9, C57BL/6 mouse SIRP-α D1 domain; assay: SPR, Langmuir fit
[20] = biological target: T12, human SIRPβ isoform 1 (human, UniProt O00241 30-148); assay: SPR, Langmuir fit
T12 construct: also called sirpb1; Sirpb1

[21] = biological target: T13, cynomolgus SIRP-α D1 domain (SEQ ID NO:12) (cynomolgus, UniProt Q5TFQ8 30-148 (human entry), limits assumed); assay: SPR, Langmuir fit
T13 construct: also called cyno2; Cyno2
T13 chain: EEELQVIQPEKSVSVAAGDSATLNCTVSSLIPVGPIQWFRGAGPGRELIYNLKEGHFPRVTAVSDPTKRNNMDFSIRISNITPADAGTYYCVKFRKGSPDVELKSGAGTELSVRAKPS

[22] = biological target: T10, BALB/c mouse SIRP-α D1 domain; assay: SPR, Langmuir fit
[23] = biological target: T3, human SIRP-α v1 D1 domain; assay: SPR, Langmuir fit
[24] = biological target: T11, NOD mouse SIRP-α D1 domain; assay: SPR, Langmuir fit
[25] = biological target: T14, human SIRPβ isoform 2 (human, UniProt Q5TFQ8 30-148); assay: SPR, Langmuir fit
T14 construct: also called Sirpb2; beta isoform 2
T14 sequence (Q5TFQ8 30-148 limits assumed): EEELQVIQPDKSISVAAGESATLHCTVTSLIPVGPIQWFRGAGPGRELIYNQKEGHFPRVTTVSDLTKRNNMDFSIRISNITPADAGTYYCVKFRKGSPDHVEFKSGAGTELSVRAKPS

[26] = biological target: T15, human SIRP-α v2 (human); assay: SPR
T15 construct: also called Human v2; Human V2
T15 sequence (chain, as listed by the source limits assumed): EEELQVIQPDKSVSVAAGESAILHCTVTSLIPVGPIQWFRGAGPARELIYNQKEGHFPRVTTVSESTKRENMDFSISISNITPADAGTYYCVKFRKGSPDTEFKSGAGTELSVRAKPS
Summary of the method: (§5)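 On a ProteOn XPR36 biosensor, purified antibodies were either amine-coupled to a GLC chip or captured on an NLC chip using biotinylated Protein A. The running buffer was PBS pH 7.4 with 0.01% Tween-20, at 25° C. SIRP analytes, at nominal concentrations fixed by A280 absorbance, were injected in one-shot kinetic mode. The rate constants are apparent values from a global simple Langmuir fit of double-referenced data, and KD equals kd/ka.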

[27] = biological target: T16, human SIRP-α v1 (human, UniProt P78324 31-149); assay: SPR; fitted KD column of Table P
T16 construct: also called Human v1; Human V1
T16 sequence (P78324 31-149 limits assumed): as the sequence (Q5TFQ8 30-148 limits assumed) above, with I13V, S14L, S20T, H24R, V27A, S79G, H101D counted along it
Summary of the method: as §5

[28] = biological target: T17, human SIRPβ isoform 1 (human, UniProt O00241 30-148); assay: SPR Koff +/-
T17 construct: also called Beta; Human SIRPb
Summary of the method: as §5

B1: antibody 119 variant Mut/mut (VL mut all / VH mut) (antibody, human IgG1, V domains shown)
VH: EVQLLESGGGVVQPGGSLRLSCAASGFSFSNFAVTWVRQAPGKGLEWVSTIGSGDTYYADSVKGRFTISRDNSKNTLYLQMNSLRAEDTAVYYCAKDSTVSWSGDFFDYWGQGTLVTVSS
VL: EIVLTQSPATLSVSPGERATLSCRASQNVKNDLAWYQQKPGQAPRLLIYAARIRETGIPARFSGSGSGTEFTLTISSLQSEDFAVYYCQQYYDWPPFTFGGGTKVEIK
notes: Human IgG1 with L234A/L235A/G237A/N297A; Labels are in the order VL/VH
Kd [1]: 0.0875 nM
Kd [2]: 0.195 nM
Kd [3]: 0.317 nM

B2: 119 antibody variant with mutated heavy and light chains (antibody, human IgG1, V domains shown)
VH: EVQLLESGGGVVQPGGSLRLSCAASGFSFSNFAVTWVRQAPGKGLEWVSTIGSGDTYYADSVKGRFTISRDNSKNTLYLQMNSLRAEDTAVYYCAKDSTVSWSGDFFDYWGQGTLVTVSS
VL: EIVLTQSPATLSVSPGERATLSCRASQNVKNDLAWYQQKPGQAPRLLIYAARIRETGIPARFSGSGSGTEFTLTISSLQSEDFAVYYCQQYYDWPPFTFGGGTKVEIK
notes: human IgG1 with L234A, L235A, G237A, N297A
Kd [4]: 0.317 nM
Kd [5]: 0.0875 nM

B5: AB3 (as in Table J1) (antibody, V domains shown)
VH: AVTLDESGGGLQTPGGALSLVCKASGFIFSDYGMNWVRQAPGKGLEFVAQITSGSRTYYGAAVKGRATISRDNRQSTVKLQLNNLRAEDTGIYFCARDFGSGVGSIDAWGNGTEVIVSS
VL: ALTQPASVSANLGGTVKITCSGSRGRYGWYQQRSPGSAPVTVIYRDNQRPSNIPSRFSSSTSGSTSTLTITGVQADDESVYFCGSYDGSIDIFGAGTTLTVL
notes: also called antibody 3
Kd [16]: 0.0767 nM
Kd [17]: 2.29 nM
Kd [18]: 83.6 nM
Kd [19]: 3.65 nM
Kd [20]: 1.63 nM
Kd [21]: 2.85 nM
Kd [22]: 1.16 nM
Kd [23]: 0.162 nM
Kd [24]: 1.63 nM
Kd [25]: 0.0678 nM

Other lines, results leading:

binding result [6]: no binding (tested: about 1 µg/ml)
binding result [7]: no binding (tested: about 1 µg/ml)
binding result [8]: no binding (tested: about 1 µg/ml)
B3: S138 (scFv)
scFv: EIVLTQSPGTLSVSPGERVILTCRASQSVDTYNLAWYQQKPGQAPRLLIYDLSTRATGIPDRFSGSGSGTEFTLTINSLEPEDFAVYYCHQYYDWPPYTFGGGTKVEIKGQSSRSSGGGGSSGGGGSDVQLVESGGGVVRPGESLRLSCAASGFTFSNYAMNWVRQAPGEGLEWVSGISGRGGDTYYADSVKGRFTISRDNSKNTLYLQMNSLRAEDTAIYYCAKGTWNYGSFDYWGLGTLVTVSSSLDPKSSDKTDTCPPCPAPELLGGPSVFLFPPKPKDTLMISRTPEVTCVVVDVSHEDPEVKFNWYVDGV
notes: also called clone S138

Kd [9]: 1.74 nM
Kd [10]: 2.11 nM
Kd [11]: 33.5 nM
Kd [12]: 13.8 nM
Kd [13]: 0.361 nM
Kd [14]: 0.551 nM
Kd [15]: 0.596 nM
B4: antibody 136 variant MutRv_I2T/mut_V34M (antibody, human IgG1, V domains shown)
VH: EVQLVESGGGVVQPGRSLRLSCAASGFTFSSYDMNWVRQAPGKGLEWVSLISGSGEIIYYADSVKGRFTISRDNSKNTLYLQMNSLRAEDTAVYYCAKENNRYRFFDDWGQGTLVTVSS
VL: ETVLTQSPGTLSLSPGERATLSCRASQSVYTYLAWYQQKPGQAPRLLIYGASSRATGIPDRFSGSGSGTEFTLTISSLQSEDFAVYYCQQYYDRPPLTFGGGTKVEIK
notes: Human IgG1 with L234A/L235A/G237A/N297A; Labels are light chain/heavy chain

Kd [26]: 1.69 nM
Kd [27]: 6.05 nM
binding result [28]: no binding
B6: antibody 213 (antibody, V domains shown)
VH: DVQLVESGGGVVRPGESLRLSCEASGFTFRNYYMTWVRQAPGEGLEWVSTISDTGDTAYYADSVKGRFTISRDNSKNSLYLQMNSLRADDTAIYYCAKSWIWWTFFDYWGLGTLVTVSS
VL: ALTQPASVSANLGGTVEITCSGGNSNHYGWYQQKSPGSAPVTLIYADTNRPSNIPSRFSGSTSGSTTTLTITGVQAEDEAVYYCGGSSTGDGIFGAGTTLTVL
notes: also called S213
